Test results taken from a protein production outcome set (Wang et al. 2014).

Test: label from the status in PepcDB records
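Note: failed if final PepcDB status was selected cloned or expressed and not failed if soluble or beyond.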

For “NSFDSSNYFYGGNNICIINTKWGKHSGIGGYAEIIDTLVGNFTNISSWAKIGIRDHIHTNFLICDFVYKDNDHIMPPGISSFEDYWVKIGNDVWVGTNVTILRGVEVGDGAVIAAGSVVTKSIPPYAIVGGNPAKFIKWRFPFEVREKLLEIKWWDWDDDLIKEKKDYLQNLVGFDMDKYKIEYRKRKED”, the protein production was “failed”.
With “MSLADTRKIDSVLLIDDDDIVNFLNTTIIRMTHRVEEIQSVTSGNAAINKLNELYAAGRWPSIICIDINMPGINGWELIDLFKQHFQPMKNKSIVCLLSSSLDPRDQAKAEASDWVDYYVSKPLTANALNNLYNKVLNEGHHHHHH” the protein production was “not failed”.
For “MNLRPYQHTIVDFILTHPRCNLFVPMGLGKTVATLTALDVLLVVEDIAPILVIAPLRVAATTWPDEVAKFPHLRHLRVSVVVGSAAARRHALEQEADIYCINYDTLKWLVEFYKDRWPFRMVVADECSKLKGFRLRQGTRRARALATHVHTKVERYVGLTGTPAPNGLQDLWALMWMVDRGARLGTHFKAFIDRWFRAMQIGSDPHAVRFVPTPHASQEIQDKIRDICLSLDPHAYFDLCQPIVNTIRVALPAHAQRLYKAMEQDMFIALECGAEVEAFNAASKTIKCLQLANGALYTDDTRQAWEVVHDAKLEALHDIIEEAAGMPVLVAYHFKSDVARLQRAFPKGRALDKHPDTIRDWNAGNIPVLFAHPASAGHGLNLQDGGNILAFFGHWWDLEQYQQIIERIGPTRQAQAGHTRPVFIHHIVAAGTVDELVMARRESKREVQDLLLEAVKRRETGKPLTSQGAIAL”, the protein production was “failed”.
In the case of “MDRTHERVLQAMAENLGEGLPRAIPLLAEKAPGLLLEHGRSWTYAMPEKGALDEKTRTLILLGIALATGSEACVKAMAHRAKRLGLSKEALLETLKIARQAQANAVLGHAAPLLEVL”, the protein production is reported as “not failed”.
For “MAEFLHRFAQGFAALNKDNLDQVAELYSEDVSFSDPMHDIHGLAAMQRYFAELYANVRDLHFDFHAFDEVRPGEGYLVWTMSYSHPRLAGGRTIRVEGCSHLKWRDKVYRHRDYFDAGALLYEHLP”, the protein production was “failed”.
For “MKNKKNNYDLMYFIPLVFLIYPIGGILYYHYPFWTLFFTLAFVGAYLYSVIIRGESKYHMIAWSTMLTYIFYMTIFINSGFIWYIYFLSNLLVYRFRDKLKSFRFISFACTLATVVFLCFFKASDFGDRIMFLIVPIFCIGYMWIAIENRNSEEQREKIAEQNQYINILSAENERNRIGRDLHDSLGHTFAMMTLKTELALKLLEKRNYDKVQKELSELNHISHQSMSEVRQIVSNLKYRTVVEEIDELYRLFQLSNIKLTVVNKLETSQLSPVTQSTITMILKELSNNIVKHAEADSVELSLVRQGATINIEMIDNGCGFTNLDGDELHSIQERLTIVEGTLTILSRSKPTHIQVVLKEV”, the protein production was “failed”.
For “MAAWVIWFIIAGILFIAEMLSITFYMLWLGIGAVVGGLIALFAPDALLLQVTVGAIVSLTLTFFTKRISKNFREAKGFTDTVDMLVGKRGIVMQAITNEANGIVKVDGDTWTAIADSSIDAGEKVVVIKRHSTILQVKKESE”, the protein production was “failed”.
With “MKIKACIFDMDGTLVNSIMDIAFSMNSALSNLGYSKIELSKFNALVGRGFNKFVIDTLKLLSLEHDNPNLQEKLYKEFVKEYNKNLSFQTKPYENIKPLLETMNKLNIPIGILSNKNHEELINLVKNIFGNILFFEIRGYSKNFPPKPDPENALDMILELNAQKEEIAYIGDSDVDMLTALNAGFMPIGVSWGFRSVQELKESGAKHIIHNPLELLDLIK” the protein production was “failed”.
In the case of “MGSEVVNPTKPRFDLSMSKRTRKPWSSLINDMHHHAICTQSSQPKPDKEQEQIEDKEIDRKSLNNLMRCDEKLNGEADVNNKSSLDQHFEDGEGIKPTMQLVVKKEKQGGLKFKGLSQHIFRLIEFLLSYRTDY”, the protein production is reported as “failed”.
In the case of “MYLEKINSPEDVKKLSIDEMKDLSTEIREVLLKKLSEHGGHIGPNLGIVELTIALHYVFNSPKDKIVYDVSHQSYIHKMLTGRKEAFINSEKYDEVSGYSNPEESEHDFFNIGHTSTSISLACGLAKARDVKDETDNVIAIIGDGSLSGGEAYEGLNNAAETGTNMIIIVNDNDMSIAENHGGLYKNLKELRDTEGKSECNFFKAMGLDYHYVKDGHDLEQLIGVFNKVKDTKQPVVVHIHTVKGKGFKFAEKNKEQWHWGMPFVLETGASKVSMGSAENYGNLTGEYLLDYMKRDPKVVAITSGTPAVFGFWKERRNEAGRQFVDVGIAEEHAVALASGIAANGGNPVYGVYSTFLQRTYDQLSQDLCINNNPAVLLVFAASVYGMNDVTHLGLYDIGMMSNIPNMVYLAPTCKEEYFAMLKWAMIQKDHPVAIRVPAMGVIESGVVDNTDYSKLNKYEVTKAGKDVAVIALGDFYQLGQSVTEKLSQENGINATLINPKYITGIDEELLEGLKKEHKLVITLEDGILDGGFGEKIARYYGASDMKVLNYGIKKELLDRYVPDELMKKNRLTDVQIVEDIMNIIK”, the protein production is reported as “failed”.
In the case of “MWDVIVVGGGPSGLSAALFLARAGLKVLVLDGGRSKVKGVSRVPNYPGLLDEPSGEELLRRLEAHARRYGAEVRPGVVKGVRDMGGVFEVETEEGVEKAERLLLCTHKDPTLPSLLGLTRRGAYIDTDEGGRTSYPRVYAAGVARGKVPGHAIISAGDGAYVAVHLVSDLRGEPYKDHAL”, the protein production is reported as “not failed”.
With “MKIESAQIIELPKILDKRGNLSIIEEFKNIPFKIERTYWIYDVPGGESRGGHAYRENEEFIVALSGSFDVVLDDGNNKKIFSLNRSYYGLYVPKGLWREMNNFSTNSLALILSSTVYEEKDYIRDYNEFLKMKRKLEHHHHHH” the protein production was “failed”.
For “MPIKARETDMATRFKGLSAFPITPADEAGRVDIEAFSALIARLDAAEVDSVGILGSTGIYMYLTREERRRAIEAAATILRGRRTLMAGIGALRTDEAVALAKDAEAAGADALLLAPVSYTPLTQEEAYHHFAAVAGATALPLAIYNNPTTTRFTFSDELLVRLAYIPNIRAIKMPLPADADYAGELARLRPKLSDDFAIGYSGDWGCTDATLAGGDTWYSVVAGLLPVPALQLMRAAQAGNAEEAKRLDATFQPLWALFKEFGSIRVIYAAANILSLTVSEPPRPILPLTSAERQRVEEALEALSALETAP”, the protein production was “not failed”.
With “MKLMVNHQTHYHYSEVARNSIQYIKMIPQSSPHQLVHYWDISVPGERIMKRDAFDNLWITSSQRFDYQNLTIMAQGIVELNLQNSGCHDSVVLPHVFLQPTPATLCDAEMLNFALEIVKTKDVSSLINLSQKILERITYSPYSTNVQTTAIDAFYAAQGVCQDHAHVMIAMCRALNLPARYVSGYLYDYNSPHLASHAWAEVYVDHEWHCFDVSNQIFVPKTHIYVAIGRDYFDVAPIRGIRENGGIEEMISTVQVLAC” the protein production was “failed”.
For “MGSGHILGTSRLPKETWMANAECFVLMLPLRECAGRCHVCLKTAYTMRHRLIECLSAYSPSFKTGRGCGCELDETYFPESFKGNHTKGSFTMPRHSRHRGKQVHRRGLSREQICVMTGVNDSNETFLQVSGRGILSRKRAMDVLRDRIASASVVATDKASAYVDVLAELEVDAHTAYDSKDPSEGTINRINTVHSLLDTFMKPFKGVSTKHLGTYLAWFKWCRTFMATDSGTAERTVARQLANGVCRSRIHDMFNVLPP”, the protein production was “failed”.
For “MIKLIYKPLWLILLIFFSLKAIAEDHYPTAPSPFYYVSDYTKTLNQQEWRTLEDALINNRSKTSSQIIVVMIPSTDGEEIARYAHNLFNKWGIGRVKHNENNGVLLLIAKNDRKLFIATGRGLESALPDAIAATIIRHHITPYFKQNLYAEGIASGLSAIMAAINGEFAAYDEYQSSNNQTLDGFFFFLFAAFVIFMMFRPTRNSQYISRSNTKPFQQILRHSRYHHDTSRDLYRGGSGDSFGGGSSGGGGAGGSWLEHHHHHH”, the protein production was “failed”.
In the case of “MASFPELPALRRLATLGRSWGLLSDFKYEQTRPDIFYGNLALDTSSLVAALSEDISGAGLNDLKVLDVGGGPGYFAEAFETLGATYFSVEPDVGEMSAAGIDVHGSVRGSGLDLPFLPDSFDVVYSSNVAEHVSAPWELGEEMLRVTRSGGLAILSYTIWLGPFGGHETGLWEHYVGGEFARDRYTKKHGHPPKNVFGESLFNVSCREGLEWGASVGNAELVAAFPRYHPYWVWWMVKVPVLREFAVSNLVLVFKKHLEHHHHHH”, the protein production is reported as “failed”.
In the case of “MEKKLTVNVSDTERIASVLAGSYFMYRSLKRQPKNYAAIASAGLLLFRGVTGHCPGYSAAGKKTLPAPVHNIDIETSVIVNRPVDTVYSFWRRLENLPLFMTHLKSVKQKDHNKSDWEAYLPGGIGSIHWEAKIVKDKPGKVIAWSSLENSTIHNAGKVMFEDIGELGTVINVVISYQAPLGVAGEKVLALLTPTFEKMIRKDIVNFKQYIETGKLPTDKEYAENGKSQFE”, the protein production is reported as “failed”.
For “MNPRLALALKLLEAGLVESAAIPVAQALERDPDDPRAHHLAGLIARRGGDGALALAAFTRGLAVAADDAPLRIERAGLLLDLGRAEEALADLAVALALAPDHQAVLSTQGRALIDLGRPGEALAPLRRARALAPDDVAPAHNLGRALLALDRPDEALPLLEAAVARAPGAIDPRADLAEALRRLDRPGDAAQLLRAVLADAPGRADLADALAGALLAAGAVDESVAVLRASLDKAPTHGAGWVNLAAALIETGALDEATAAADRALALDPDDADAKVNRAFARCLADDYEQGFADYAHRWRTAAFQRPYPPVTAPPWAGEPLGEGTLLVRGEQGLGDQIMAARFLPWLSKRPDRPRRIVFECHPCLHRLLAEGLEAGIDLLAMGRPPPPVAAWIGALDLARMAGVTAGVMPVDVPYLKARPPVPPLAPPLPPGGRGRLGLVWAGKTRPRDRSCPLEPLAGLCVDQGWTVHALQLGPRRADLAGLPAGLGVIDEGDRLGDMAATASVMAGLDLVVAVDTAVAHLAGALGLPCALLLLATPDWRWGQKASRTVWYPSLRLFRQPHPGDWDGAFDAVRRAFAQGWPLS”, the protein production was “failed”.
In the case of “SLDSINTRIAEELSALPSGRVQPQQVAAAVALLDEGSTVPFIARYRKEVTGSLDDTQLRMLEERLRYLRELEERRGAILASIEEQGKLTPELARDIKLADTKTRLEDLYLPYKQKRRTKGQIALEAGLGALADALFDDPTLVPESEAARFVDAEKGFADVKAVLEGAKYILMERFAEDATLLDKLRVFMKNEATLTARVVPGKEQEGAKFSDYFEHDEPLKSAPSHRALAIFRGRNEGVLSASLKVGEEAPGTLHPCEVMIAQRFGLSNQGRAADKWLAEVVRWTWKVKLYTHLETDLFGELRDGAEDEAISVFARNLHDLLLAAPAGPRATLGLDPGLRTGVKVAVVDATGKLLDTATVYPHAPKNQWDQTLAVLAALCAKHQVELIAIGNGTASRETDKLAGELIKKYPGMKLTKIMVSEAGASVYSASELAAKEFPELDVSLRGAVSIARRLQDPLAELVKIEPKSIGVGQYQHDVSQLKLARSLDAVVEDCVNAVGVDVNTASAALLARISGLNSTLAQNIVAHRDANGAFRTRDELKKVSRLGEKTFEQAAGFLRVMNGDNPLDASAVHPETYPLVQRIAADTERDIRSLIGDSAFLKRLDPKKFTDETFGLPTVTDILKELDKPGRDPRPEFKTAEFQEGVESLKDLKPGMVLEGVVTNVTNFGAFVDIGVHQDGLVHISALSEKFVKDPYEVVKAGDIVKVKVMEVDIPRNRVGLSMRMSDTPGEKVEGQRGGRPTGSGQPRQERGAPRGQSAPPANNAMAALFANAKQLKKK”, the protein production is reported as “not failed”.
For “MSTDKSKTRELILNGNLYKVLFLISFPIVITNIIQAFYDLTDMFYVGKLGAMPLSALSLAGPVNFFIIAIAMGMATGSISLMSKCIGEGNFSRFSRYAGQLIVLNFVLSLFVTICAFFFIDHLLDLLGVKGELKELSRVYFYVTIFAIPIMFLSISITYILNAQGETILSMTIVLFANIVNFILDPILIFSFNMGITGAAWATLFSKLLTVVFYLFLTYRLNYGLKIHLKDLVIDIRSIKEIVNLGLPSTFGQIMVSLSFFIFNYIVIEISPKFLAAYGLTNTIISFLFLPAMGIGTGIISIVGQNLGAKKVNRVEEVLKKGFFISLAILLIINSIVIFNKQFILRLFTNDLEVLNYANNYLLLTTIGTFGYGLQQVFFGGLIGSGRTKIAMIVIFIRLWLIRLPVVFIFQYFGIMENSLGYAFIISNYLAIIILIAFTCTRYWVKPILIKKYK”, the protein production was “failed”.
